In this assay the target is human serum albumin (human) (UniProt P02768). Put plainly: screening ELISA. On the technique in general: ELISA stands for enzyme-linked immunosorbent assay.

The values below come from patent publication US20210145976A1.

Numbering of substitutions follows the chain as printed.

Chain of human serum albumin (human) (P02768 25-609 limits assumed): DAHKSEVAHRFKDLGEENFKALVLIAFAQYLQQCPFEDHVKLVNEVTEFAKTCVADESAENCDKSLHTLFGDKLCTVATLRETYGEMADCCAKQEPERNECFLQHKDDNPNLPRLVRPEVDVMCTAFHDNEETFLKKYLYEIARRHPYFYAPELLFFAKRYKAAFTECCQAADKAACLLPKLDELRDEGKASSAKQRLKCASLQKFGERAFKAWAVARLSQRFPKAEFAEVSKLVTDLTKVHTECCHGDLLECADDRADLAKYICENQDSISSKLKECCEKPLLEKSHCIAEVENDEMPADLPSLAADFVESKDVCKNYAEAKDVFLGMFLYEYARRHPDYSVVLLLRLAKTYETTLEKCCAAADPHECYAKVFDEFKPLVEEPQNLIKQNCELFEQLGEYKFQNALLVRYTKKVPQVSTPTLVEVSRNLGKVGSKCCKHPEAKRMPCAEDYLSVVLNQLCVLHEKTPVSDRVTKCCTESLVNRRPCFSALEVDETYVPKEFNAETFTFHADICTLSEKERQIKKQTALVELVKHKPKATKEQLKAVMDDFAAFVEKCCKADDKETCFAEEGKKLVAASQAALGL

B1: SEQ ID NO 193 (designed binder)
chain: MLPAPKNLVVSRVTEDSARLSWTAPDAAFDSFTIWYAEAVGNGEAIVLTVPGSERSYDLTGLKPGTEYWVDIWGVKGGEFSSPLSAIFTT
B1 registered an HSA of 2500.

B2: SEQ ID NO 223 (designed binder)
chain: B1 chain with V40L, N42D, W69F, W73P, E79T, F80R, F88S
B2 registered an HSA of 52000.

B3: SEQ ID NO 218 (designed binder)
chain: B1 chain with W35L, A37Y, A39M, N42E, L62P, W73Y, E79G, F80W, S82R
Molecule B3 gave an HSA of 33800.

B4: SEQ ID NO 47 (designed binder)
chain: B1 chain with V40L, N42D, W69F, W73Y, E79F, F80W, S82L
Molecule B4 came in with an HSA of 5200.

B5: SEQ ID NO 197 (designed binder)
chain: B1 chain with T33K, W35D, A37L, A39I, V40N, G41D, W69P, D71Y, E79Y, F80P
The molecule B5 gave an HSA of 18900.

B6: SEQ ID NO 221 (designed binder)
chain: MLPAPKNLVVSRVTEDSARLSWTAPDAAFDSFHISYQEVVAEGEAIYLRVPGSERSYDLTGLKPGTEYYVLIHGVKGGYESKPLDASFTT
For the molecule B6, the HSA worked out at 3650.

B7: SEQ ID NO 220 (designed binder)
chain: MLPAPKNLVVSRVTEDSARLSWTAPDAAFDSFHIIYEEDGTEGEAIYLRVPGSERSYDLTGLKPGTEYEVDIEGVKGGVLSWPLFAEFTT
Molecule B7 yielded an HSA of 9400.

B8: SEQ ID NO 192 (designed binder)
chain: MLPAPKNLVVSRVTEDSARLSWTALDAAFDSFFIGYLEPQPPGEAIVLTVPGSERSYDLTGLKPGTEYNVTIQGVKGGFPSMPLSAIFTT
B8: the HSA was determined as 4100.

B9: SEQ ID NO 207 (designed binder)
chain: B8 chain with L25P, F79T, M82E, F88S
Regarding B9, the HSA was found to be 25600.

B10: SEQ ID NO 199 (designed binder)
chain: B8 chain with L25P, F33G, G35R, L37F, P39W, Q40W, P41D, P42L, L59P
Regarding B10, the HSA was 14400.

B11: SEQ ID NO 216 (designed binder)
chain: MLPAPKNLVVSRVTEDSARLSWTAPDAAFDSFPIAYAEPTPSGEAIVLTVPGSERSYDLTGLKPGTEYSVLIHGVKGGGLSLPLSAIFTT
In turn, B11 yielded an HSA of 21800.

B12: SEQ ID NO 189 (designed binder)
chain: MLPAPKNLVVSRVTEDSARLSWTAPDAAFDSFHEWVYFGEAIVLTVPGSERSYDLTGLKPGTEYFVDIWGVKGGTVSKPLSAIFTT
In turn, B12 returned an HSA of 67500.

B13: SEQ ID NO 202 (designed binder)
chain: MLPAPKNLVVSRVTEDSARLSWTAPDAAFDSFYIDYLELTYSGEAIVLTVPGSERSYDLTGLKPGTEYYVYIYGVKGGYPSSPLSAIFTT
B13 came in with an HSA of 2800.

B14: SEQ ID NO 215 (designed binder)
chain: B11 chain with P33L, A35P, P39T, T40S, S42T, G79Y, L80P, L82S
Regarding B14, the HSA was 1750.

B15: SEQ ID NO 219 (designed binder)
chain: B13 chain with Y33H, S42A, Y71T
In turn, B15 yielded an HSA of 2600.

B16: SEQ ID NO 204 (designed binder)
chain: MLPAPKNLVVSRVTEDSARLPWTAPDAAFDSFWISYYESVGYGEAIVLTVPGSERSYDLTGLKPGTEYYVDISGVKGGVYSLPLSAIFTT
Consider B16, for which the HSA was 24600.

B17: SEQ ID NO 191 (designed binder)
chain: MLPAPENLVVSRVTEDSARLSWTAPDAAFDSFEITYEENWRRGEAIVLTVPGSERSYDLTGPKPGTEYIVIIQGVKGGAESWPLSAIFTT
In turn, B17 registered an HSA of 34000.

B18: SEQ ID NO 198 (designed binder)
chain: MLPAPKNLVVSRVTEDSARLSWTAPDAAFDSFLIAYNEDRKFGEAIVLTVPGSERSYDLTGLKPGTEYDVWIEGVKGGSLSFPLSAIFTT
The molecule B18 registered an HSA of 3050.

B19: SEQ ID NO 194 (designed binder)
chain: MLPAPKNLVVSRVTEDSARLSWTAPDAAFDSFEIDYDELAIYGEAIVLTVPGSERSYDLTGLKPGTEYRVFIYGVKGGWTSWPLSTIFTT
B19 yielded an HSA of 17800.

B20: SEQ ID NO 206 (designed binder)
chain: B19 chain with E33D, D35E, A40W, I41K, Y42N, W79Y, T80G, W82F, T86A
Take B20: the HSA came to 2650.

B21: SEQ ID NO 205 (designed binder)
chain: B19 chain with E33D, L39P, I41W, Y42N, W79N, T86A
Consider B21, for which the HSA was 3350.

B22: SEQ ID NO 210 (designed binder)
chain: MLPAPKNLVVSRVTEDSARLSWTAPDAAFDSFSIVYGERFVNGEAIVLTVPGSERSYDLTGLKPGTEYHVYIDGVKGGDLSWPLSAIFTT
Take B22: the HSA stood at 2250.

B23: SEQ ID NO 187 (designed binder)
chain: MLPAPKNLVVSRVTEDSARLSWTAPDAAFDSFVIEYFEFVGYGEAIVLTVPGSERSYDLTGLKPGTEYSVGIYGVKGGKLSPPLSAIFTT
In the case of B23, the HSA worked out at 7250.

B24: SEQ ID NO 48 (designed binder)
chain: B23 chain with F39Q, V40F, G41N, Y42L, S69W, K79W, P82H
In turn, B24 gave an HSA of 2800.

B25: SEQ ID NO 46 (designed binder)
chain: B23 chain with V33T, V40T, Y42T, S69Y, G71S, K79L, P82A
In turn, B25 had an HSA of 3040.

B26: SEQ ID NO 203 (designed binder)
chain: B23 chain with F29L, V33R, F37Y, F39S, V40Y, Y42H, S69D, K79Y, L80Y, P82R
Consider B26, for which the HSA was found to be 3300.

B27: SEQ ID NO 200 (designed binder)
chain: B13 chain with D35E, L37Y, L39W, T40M, Y41H, S42T, Y69S
B27 displayed an HSA of 2100.

B28: SEQ ID NO 188 (designed binder)
chain: B11 chain with P33L, A35P, P39T, T40S, G79K
As to B28, the HSA was 3350.

B29: SEQ ID NO 222 (designed binder)
chain: B23 chain with V33Y, F39W, V40T, Y42S, S69N, G71A, K79A, L80V, P82Y
B29: the HSA was determined as 3950.

B30: SEQ ID NO 196 (designed binder)
chain: MLPAPKNLVVSRVTEDSARLSWTAPDAAFDSFNIHYVEWWVLGEAIVLTVPGSERSYDLTGLKPGTEYPVYIYGVKGGPKSIPLSAIFTT
Molecule B30 displayed an HSA of 34600.

B31: SEQ ID NO 201 (designed binder)
chain: B30 chain with H35D, V37W, W39T, L42I, P69E, Y71I, Y73P, P79T, K80I, I82P
With B31, the HSA was 11400.

B32: SEQ ID NO 195 (designed binder)
chain: MLPAPKNLVVSRVTEDSARLSWTAPDAAFDSFPIEYDEIPFWGEAIVLTVPGSERSYDLTGLKPGTEYRVWIHGVKGGNSSWPLSAIFTT
Molecule B32 came in with an HSA of 90200.

B33: SEQ ID NO 213 (designed binder)
chain: MLPAPKNLVVSRVTEDSARLSWTAPDAAFDSFWIYYWEIERAGEAIRLDVPGSERSYDLTGLKPGTEYRVDIWGVKGGPTSGPLRATFTT
B33 showed an HSA of 9800.

B34: SEQ ID NO 45 (designed binder)
chain: MLPAPKNLVVSRVTEDSARLSWTAPDAAFDSFAIYYLESYPEGEAIVLTVPGSERSYDLTGLKPGTEYWVGIDGVKGGTWSSPLSAIFTT
As for B34, the HSA came to 2880.

B35: SEQ ID NO 217 (designed binder)
chain: B34 chain with A33I, Y35E, L37W, S39W, P41F, E42A, W69T, G71W, D73T, S82E
Molecule B35 came in with an HSA of 11800.

B36: SEQ ID NO 212 (designed binder)
chain: B23 chain with V33I, F37W, F39Q, V40I, Y42V, S69W, K79L, P82S
For B36, the HSA was found to be 2250.

B37: SEQ ID NO 211 (designed binder)
chain: MLPAPKNLVVSRVTEDSARLSWTAPDAAFDSFWINYYEAQPDGEAIVLTVPGSERSYDLTGLKPGTEYDVEIAGVKGGTASLPLSAIFTT
With B37, the HSA stood at 3000.

B38: SEQ ID NO 214 (designed binder)
chain: MLPAPKNLVVSRVTEDSARLSWTAPDAAFDSFAIPYGERQELGEAIVLTVPGSERSYDLTGLKPGTEYFVVIQGVKGGQPSYPLSAIFTT
B38 returned an HSA of 2200.

B39: SEQ ID NO 208 (designed binder)
chain: MLPAPKNLVVSRVTEDSARLSWTAPDAAFDSFGIVYREPYVGGEAIVLTVPGSERSYDLTGLKPGTEYGVPIPGVKGGYDSGPLSAIFTT
With B39, the HSA came out at 46700.

B40: SEQ ID NO 190 (designed binder)
chain: MLPAPKNLVVSRVTEDSARLSWTAPDAAFDSFFIGYPEYPATGEAITLFVPGSERSYDLTGLKPGTEYNVVIQGVKGGRPSNPLVVAFTT
Molecule B40 yielded an HSA of 4900.
